Residue numbers refer to the chain shown, from its start.
How the values were obtained:
[1] = target: recombinant human B7H3-Fc protein (human) (UniProt Q5ZPR3); assay: ELISA; row B7H3-Fc; well 3 of 3
[2] = target: hB7H3-His (human) (UniProt Q5ZPR3); assay: ELISA; row B7H3-his; well 3 of 3
[3] = target: human B7H3 (human) (UniProt Q5ZPR3); assay: ELISA; row Human; well 2 of 3
[4] = target: T1, rat B7H3-His (rat) (UniProt Q7TPB4); assay: ELISA; row Rat; well 1 of 3
T1 sequence (looked up): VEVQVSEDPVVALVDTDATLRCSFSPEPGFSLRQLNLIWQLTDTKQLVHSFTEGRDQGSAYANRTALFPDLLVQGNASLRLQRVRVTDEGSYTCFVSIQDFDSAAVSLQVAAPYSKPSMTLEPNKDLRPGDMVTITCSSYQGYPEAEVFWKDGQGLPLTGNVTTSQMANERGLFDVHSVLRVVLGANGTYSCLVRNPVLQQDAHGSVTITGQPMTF

[5] = target: T1, rat B7H3-His (rat); assay: ELISA; row Rat; well 2 of 3
[6] = target: PD-L1; assay: ELISA; row PDL1-Fc; well 1 of 3
Sequence of PD-L1 (Q9NZQ7 19-238): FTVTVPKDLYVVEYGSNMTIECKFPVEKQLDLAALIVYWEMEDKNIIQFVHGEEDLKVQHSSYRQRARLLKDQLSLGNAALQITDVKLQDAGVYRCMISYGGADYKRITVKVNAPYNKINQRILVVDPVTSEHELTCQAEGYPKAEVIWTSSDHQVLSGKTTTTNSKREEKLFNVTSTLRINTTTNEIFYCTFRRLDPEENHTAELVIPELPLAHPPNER

[7] = target: T2, mouse B7H3-His (mouse) (UniProt Q8VE98); assay: ELISA; row Mouse-2 (mB7H3); well 3 of 3
T2 sequence (looked up): T1 sequence (looked up) with R33A, A62S, D131N, L156V, M214L

[8] = target: PD-L1; assay: ELISA; row PDL1-Fc; well 2 of 3
[9] = target: T2, mouse B7H3-His (mouse); assay: ELISA; row Mouse-1 (msB7H3); well 1 of 3
[10] = target: recombinant human B7H3-Fc protein (human) (UniProt Q5ZPR3); assay: ELISA; row B7H3-Fc; well 2 of 3
[11] = target: T2, mouse B7H3-His (mouse); assay: ELISA; row Mouse-2 (mB7H3); well 1 of 3
[12] = target: recombinant human B7H3-Fc protein (human) (UniProt Q5ZPR3); assay: ELISA; row B7H3-Fc; well 1 of 3
[13] = target: hB7H3-His (human) (UniProt Q5ZPR3); assay: ELISA; row B7H3-his; well 1 of 3
[14] = target: hB7H3-His (human) (UniProt Q5ZPR3); assay: ELISA; row B7H3-his; well 2 of 3
[15] = target: B7H3 R&D; assay: ELISA; row B7H3 R&D; well 1 of 3
[16] = target: T2, mouse B7H3-His (mouse); assay: ELISA; row Mouse-1 (msB7H3); well 3 of 3
[17] = target: Irrelevant antigen; assay: ELISA; row Irrelevant antigen; well 1 of 3
[18] = target: monkey B7H3-His (monkey); assay: ELISA; row Monkey; well 1 of 3
[19] = target: T2, mouse B7H3-His (mouse); assay: ELISA; row Mouse-1 (msB7H3); well 2 of 3
[20] = target: HN3-Fc; assay: ELISA; row HN3-Fc; well 2 of 3
[21] = target: T1, rat B7H3-His (rat); assay: ELISA; row Rat; well 3 of 3
[22] = target: PD-L1; assay: ELISA; row PDL1-Fc; well 3 of 3
[23] = target: Irrelevant antigen; assay: ELISA; row Irrelevant antigen; well 3 of 3
[24] = target: HN3-Fc; assay: ELISA; row HN3-Fc; well 1 of 3
[25] = target: HN3-Fc; assay: ELISA; row HN3-Fc; well 3 of 3
[26] = target: monkey B7H3-His (monkey); assay: ELISA; row Monkey; well 2 of 3
[27] = target: human B7H3 (human) (UniProt Q5ZPR3); assay: ELISA; row Human; well 3 of 3
[28] = target: monkey B7H3-His (monkey); assay: ELISA; row Monkey; well 3 of 3
[29] = target: Irrelevant antigen; assay: ELISA; row Irrelevant antigen; well 2 of 3
[30] = target: B7H3 R&D; assay: ELISA; row B7H3 R&D; well 2 of 3
[31] = target: B7H3 R&D; assay: ELISA; row B7H3 R&D; well 3 of 3
[32] = target: T2, mouse B7H3-His (mouse); assay: ELISA; row Mouse-2 (mB7H3); well 2 of 3
[33] = target: human B7H3 (human) (UniProt Q5ZPR3); assay: ELISA; row Human; well 1 of 3

Sequence of hB7H3-His (human) (Q5ZPR3 29-461 limits assumed): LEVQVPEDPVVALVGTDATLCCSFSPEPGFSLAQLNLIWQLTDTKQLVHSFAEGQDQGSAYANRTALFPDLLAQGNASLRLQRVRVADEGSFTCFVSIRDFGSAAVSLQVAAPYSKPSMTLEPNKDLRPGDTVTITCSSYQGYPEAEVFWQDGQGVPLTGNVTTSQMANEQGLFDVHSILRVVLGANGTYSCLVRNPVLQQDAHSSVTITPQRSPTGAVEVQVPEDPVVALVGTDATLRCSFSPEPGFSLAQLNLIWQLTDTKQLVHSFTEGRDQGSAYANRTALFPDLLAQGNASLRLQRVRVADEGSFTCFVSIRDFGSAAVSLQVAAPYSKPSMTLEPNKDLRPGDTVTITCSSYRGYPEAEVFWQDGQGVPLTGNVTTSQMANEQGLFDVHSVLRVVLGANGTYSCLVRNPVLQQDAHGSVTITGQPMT
Sequence of human B7H3 (human) (Q5ZPR3 29-466 limits assumed): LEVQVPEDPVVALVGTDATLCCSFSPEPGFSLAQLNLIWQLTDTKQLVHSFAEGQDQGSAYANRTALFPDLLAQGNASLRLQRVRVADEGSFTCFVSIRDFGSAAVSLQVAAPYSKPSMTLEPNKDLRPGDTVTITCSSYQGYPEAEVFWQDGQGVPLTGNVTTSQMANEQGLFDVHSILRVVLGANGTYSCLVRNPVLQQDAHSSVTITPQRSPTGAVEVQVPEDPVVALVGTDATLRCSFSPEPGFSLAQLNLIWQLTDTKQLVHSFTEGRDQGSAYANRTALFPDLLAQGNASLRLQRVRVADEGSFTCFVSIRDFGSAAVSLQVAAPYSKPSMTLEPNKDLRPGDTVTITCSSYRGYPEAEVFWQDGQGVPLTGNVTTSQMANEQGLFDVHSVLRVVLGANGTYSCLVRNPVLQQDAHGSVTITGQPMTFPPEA
Sequence of recombinant human B7H3-Fc protein (human) (Q5ZPR3 29-466 limits assumed): as above

Which ELISA reading (name not given) [1] does the source give for “commercial anti-human B7H3 hybridoma antibody 376.96” here?
The ELISA reading (name not given) was 1.59.

And the ELISA reading (name not given) [2]?
The ELISA reading (name not given) was 0.813.

What about the ELISA reading (name not given) [3] of the same substance?
Its ELISA reading (name not given) is 1.57.

What about the ELISA reading (name not given) [4] of the same substance?
Its ELISA reading (name not given) is 0.981.

What about the ELISA reading (name not given) [5] of the same substance?
The ELISA reading (name not given) was 1.01.

And the ELISA reading (name not given) [6]?
Its ELISA reading (name not given) is 0.0652.

What about the ELISA reading (name not given) [7] of the same substance?
Its ELISA reading (name not given) is 0.184.

What about the ELISA reading (name not given) [8] of the same substance?
Its ELISA reading (name not given) is 0.0812.

What about the ELISA reading (name not given) [9] of the same substance?
Its ELISA reading (name not given) is 0.14.

What about the ELISA reading (name not given) [10] of the same substance?
The ELISA reading (name not given) was 1.59.

And the ELISA reading (name not given) [11]?
Its ELISA reading (name not given) is 0.157.

What about the ELISA reading (name not given) [12] of the same substance?
The ELISA reading (name not given) was 1.61.

What about the ELISA reading (name not given) [13] of the same substance?
The ELISA reading (name not given) was 0.811.

What about the ELISA reading (name not given) [14] of the same substance?
The ELISA reading (name not given) was 0.812.

What about the ELISA reading (name not given) [15] of the same substance?
The ELISA reading (name not given) was 0.991.

What about the ELISA reading (name not given) [16] of the same substance?
The ELISA reading (name not given) was 0.133.

And the ELISA reading (name not given) [17]?
Its ELISA reading (name not given) is 0.0531.

And the ELISA reading (name not given) [18]?
The ELISA reading (name not given) was 1.59.

What about the ELISA reading (name not given) [19] of the same substance?
Its ELISA reading (name not given) is 0.156.

What about the ELISA reading (name not given) [20] of the same substance?
The ELISA reading (name not given) was 0.0541.

And the ELISA reading (name not given) [21]?
Its ELISA reading (name not given) is 1.06.

And the ELISA reading (name not given) [22]?
Its ELISA reading (name not given) is 0.0749.

What about the ELISA reading (name not given) [23] of the same substance?
The ELISA reading (name not given) was 0.0624.

And the ELISA reading (name not given) [24]?
Its ELISA reading (name not given) is 0.0545.

What about the ELISA reading (name not given) [25] of the same substance?
Its ELISA reading (name not given) is 0.0521.

And the ELISA reading (name not given) [26]?
The ELISA reading (name not given) was 1.59.

And the ELISA reading (name not given) [27]?
The ELISA reading (name not given) was 1.44.

And the ELISA reading (name not given) [28]?
The ELISA reading (name not given) was 1.65.

And the ELISA reading (name not given) [29]?
Its ELISA reading (name not given) is 0.0634.

What about the ELISA reading (name not given) [30] of the same substance?
Its ELISA reading (name not given) is 0.993.

And the ELISA reading (name not given) [31]?
Its ELISA reading (name not given) is 1.07.

What about the ELISA reading (name not given) [32] of the same substance?
The ELISA reading (name not given) was 0.145.

And the ELISA reading (name not given) [33]?
Its ELISA reading (name not given) is 1.48.

From patent US20220380471A1
